To fix the notation:
T1: CHRM1 (human, UniProt P11229 1-460)
T1 construct: whole, on cells; Untagged: adenovirus-expressed in U-2 OS or MDA-MB-231 cells, or endogenous in patient derived cells; also called Cholinergic Receptor Muscarinic 1
T1 sequence (looked up): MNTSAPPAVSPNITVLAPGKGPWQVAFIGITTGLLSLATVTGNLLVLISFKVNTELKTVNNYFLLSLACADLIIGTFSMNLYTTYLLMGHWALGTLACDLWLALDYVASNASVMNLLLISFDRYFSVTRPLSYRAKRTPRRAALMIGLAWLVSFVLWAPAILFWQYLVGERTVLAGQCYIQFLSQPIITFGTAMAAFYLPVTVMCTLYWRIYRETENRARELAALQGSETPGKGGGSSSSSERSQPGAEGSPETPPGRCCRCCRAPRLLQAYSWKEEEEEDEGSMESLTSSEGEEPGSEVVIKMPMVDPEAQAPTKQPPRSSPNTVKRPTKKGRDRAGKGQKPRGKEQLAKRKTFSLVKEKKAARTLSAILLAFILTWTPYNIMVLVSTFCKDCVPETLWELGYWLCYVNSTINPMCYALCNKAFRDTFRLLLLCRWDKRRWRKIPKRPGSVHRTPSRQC

B1: CXCR4 (receptor, human, UniProt P61073 1-352, looked up)
chain: MEGISIYTSDNYTEEMGSGDYDSMKEPCFREENANFNKIFLPTIYSIIFLTGIVGNGLVILVMGYQKKLRSMTDKYRLHLSVADLLFVITLPFWAVDAVANWYFGNFLCKAVHVIYTVNLYSSVLILAFISLDRYLAIVHATNSQRPRKLLAEKVVYVGVWIPALLLTIPDFIFANVSEADDRYICDRFYPNDLWVVVFQFQHIMVGLILPGIVILSCYCIIISKLSHSKGHQKRKALKTTVILILAFFACWLPYYIGISIDSFILLEIIKQGCEFENTVHKWISITEALAFFHCCLNPILYAFLGAKFKTSAQHALTSVSRGSSLKILSKGKRGGHSSVSTESESSSFHSS
notes: whole, on cells; also called C-X-C Motif Chemokine Receptor 4; CXC receptor 4
B2: CALCR-VC (receptor, human, UniProt P30988 25-474, looked up)
chain: AFSNQTYPTIEPKPFLYVVGRKKMMDAQYKCYDRMQQLPAYQGEGPYCNRTWDGWLCWDDTPAGVLSYQFCPDYFPDFDPSEKVTKYCDEKGVWFKHPENNRTWSNYTMCNAFTPEKLKNAYVLYYLAIVGHSLSIFTLVISLGIFVFFRSLGCQRVTLHKNMFLTYILNSMIIIIHLVEVVPNGELVRRDPVSCKILHFFHQYMMACNYFWMLCEGIYLHTLIVVAVFTEKQRLRWYYLLGWGFPLVPTTIHAITRAVYFNDNCWLSVETHLLYIIHGPVMAALVVNFFFLLNIVRVLVTKMRETHEAESHMYLKAVKATMILVPLLGIQFVVFPWRPSNKMLGKIYDYVMHSLIHFQGFFVATIYCFCNNEVQTTVKRQWAQFKIQWNQRWGRRPSNRSARAAAAAAEAGDIPIYICHQELRNEPANNQGEESAEIIPLNIIEQESSA
notes: whole, on cells; Adenovirus-expressed in U-2 OS cells; not shown: VC155, C-terminal fragment of Venus
B3: C5AR1-VC (receptor, human, UniProt P21730 1-350, looked up)
chain: MDSFNYTTPDYGHYDDKDTLDLNTPVDKTSNTLRVPDILALVIFAVVFLVGVLGNALVVWVTAFEAKRTINAIWFLNLAVADFLSCLALPILFTSIVQHHHWPFGGAACSILPSLILLNMYASILLLATISADRFLLVFKPIWCQNFRGAGLAWIACAVAWGLALLLTIPSFLYRVVREEYFPPKVLCGVDYSHDKRRERAVAIVRLVLGFLWPLLTLTICYTFILLRTWSRRATRSTKTLKVVVAVVASFFIFWLPYQVTGIMMSFLEPSSPTFLLLKKLDSLCVSFAYINCCINPIIYVVAGQGFQGRLRKSLPSLLRNVLTEESVVRESKSFTRSTVDTMAQKTQAV
notes: as for B2
B4: CHRM1-VC (receptor, human, UniProt P11229 1-460, looked up)
chain: T1 sequence (looked up)
notes: as for B2
B5: TACR3-VC (receptor, human, UniProt P29371 1-465, looked up)
chain: MATLPAAETWIDGGGGVGADAVNLTASLAAGAATGAVETGWLQLLDQAGNLSSSPSALGLPVASPAPSQPWANLTNQFVQPSWRIALWSLAYGVVVAVAVLGNLIVIWIILAHKRMRTVTNYFLVNLAFSDASMAAFNTLVNFIYALHSEWYFGANYCRFQNFFPITAVFASIYSMTAIAVDRYMAIIDPLKPRLSATATKIVIGSIWILAFLLAFPQCLYSKTKVMPGRTLCFVQWPEGPKQHFTYHIIVIILVYCFPLLIMGITYTIVGITLWGGEIPGDTCDKYHEQLKAKRKVVKMMIIVVMTFAICWLPYHIYFILTAIYQQLNRWKYIQQVYLASFWLAMSSTMYNPIIYCCLNKRFRAGFKRAFRWCPFIKVSSYDELELKTTRFHPNRQSSMYTVTRMESMTVVFDPNDADTTRSSRKKRATPRDPSFNGCSRRNSKSASATSSFISSPYTSVDEYS
notes: as for B2
B6: EDNRB-VC (receptor, human, UniProt P24530 27-442, looked up)
chain: EERGFPPDRATPLLQTAEIMTPPTKTLWPKGSNASLARSLAPAEVPKGDRTAGSPPRTISPPPCQGPIEIKETFKYINTVVSCLVFVLGIIGNSTLLRIIYKNKCMRNGPNILIASLALGDLLHIVIDIPINVYKLLAEDWPFGAEMCKLVPFIQKASVGITVLSLCALSIDRYRAVASWSRIKGIGVPKWTAVEIVLIWVVSVVLAVPEAIGFDIITMDYKGSYLRICLLHPVQKTAFMQFYKTAKDWWLFSFYFCLPLAITAFFYTLMTCEMLRKKSGMQIALNDHLKQRREVAKTVFCLVLVFALCWLPLHLSRILKLTLYNQNDPNRCELLSFLLVLDYIGINMASLNSCINPIALYLVSKRFKNCFKSCLCCWCQSFEEKQSLEEKQSCLKFKANDHGYDNFRSSNKYSSS
notes: as for B2
B7: ADCYAP1R1-VC (receptor, human, UniProt P41586 21-468, looked up)
chain: MHSDCIFKKEQAMCLEKIQRANELMGFNDSSPGCPGMWDNITCWKPAHVGEMVLVSCPELFRIFNPDQVWETETIGESDFGDSNSLDLSDMGVVSRNCTEDGWSEPFPHYFDACGFDEYESETGDQDYYYLSVKALYTVGYSTSLVTLTTAMVILCRFRKLHCTRNFIHMNLFVSFMLRAISVFIKDWILYAEQDSNHCFISTVECKAVMVFFHYCVVSNYFWLFIEGLYLFTLLVETFFPERRYFYWYTIIGWGTPTVCVTVWATLRLYFDDTGCWDMNDSTALWWVIKGPVVGSIMVNFVLFIGIIVILVQKLQSPDMGGNESSIYLRLARSTLLLIPLFGIHYTVFAFSPENVSKRERLVFELGLGSFQGFVVAVLYCFLNGEVQAEIKRKWRSWKVNRYFAVDFKHRHPSLASSGVNGGTQLSILSKSSSQIRMSGLPADNLAT
notes: as for B2
B8: GALR1-VC (receptor, human, UniProt P47211 1-349, looked up)
chain: MELAVGNLSEGNASWPEPPAPEPGPLFGIGVENFVTLVVFGLIFALGVLGNSLVITVLARSKPGKPRSTTNLFILNLSIADLAYLLFCIPFQATVYALPTWVLGAFICKFIHYFFTVSMLVSIFTLAAMSVDRYVAIVHSRRSSSLRVSRNALLGVGCIWALSIAMASPVAYHQGLFHPRASNQTFCWEQWPDPRHKKAYVVCTFVFGYLLPLLLICFCYAKVLNHLHKKLKNMSKKSEASKKKTAQTVLVVVVVFGISWLPHHIIHLWAEFGVFPLTPASFLFRITAHCLAYSNSSVNPIIYAFLSENFRKAYKQVFKCHIRKDSHLSDTKESKSRIDTPPSTNCTHV
notes: as for B2
B9: APLNR-VC (receptor, human, UniProt P35414 1-380, looked up)
chain: MEEGGDFDNYYGADNQSECEYTDWKSSGALIPAIYMLVFLLGTTGNGLVLWTVFRSSREKRRSADIFIASLAVADLTFVVTLPLWATYTYRDYDWPFGTFFCKLSSYLIFVNMYASVFCLTGLSFDRYLAIVRPVANARLRLRVSGAVATAVLWVLAALLAMPVMVLRTTGDLENTTKVQCYMDYSMVATVSSEWAWEVGLGVSSTTVGFVVPFTIMLTCYFFIAQTIAGHFRKERIEGLRKRRRLLSIIVVLVVTFALCWMPYHLVKTLYMLGSLLHWPCDFDLFLMNIFPYCTCISYVNSCLNPFLYAFFDPRFRQACTSMLCCGQSRCAGTSHSSSGEKSASYSSGHSQGPGPNMGKGGEQMHEKSIPYSQETLVVD
notes: as for B2
B10: ADORA3-VC (receptor, human, UniProt P0DMS8 1-318, looked up)
chain: MPNNSTALSLANVTYITMEIFIGLCAIVGNVLVICVVKLNPSLQTTTFYFIVSLALADIAVGVLVMPLAIVVSLGITIHFYSCLFMTCLLLIFTHASIMSLLAIAVDRYLRVKLTVRYKRVTTHRRIWLALGLCWLVSFLVGLTPMFGWNMKLTSEYHRNVTFLSCQFVSVMRMDYMVYFSFLTWIFIPLVVMCAIYLDIFYIIRNKLSLNLSNSKETGAFYGREFKTAKSLFLVLFLFALSWLPLSIINCIIYFNGEVPQLVLYMGILLSHANSMMNPIVYAYKIKKFKETYLLILKACVVCHPSDSLDTSIEKNSE
notes: as for B2

In one assay the target is T2, ADRB2 (human, UniProt P07550 1-413).
T2 construct: whole, on cells; Untagged: adenovirus-expressed in U-2 OS or MDA-MB-231 cells, or endogenous in patient derived cells and PDX tissue; also called Adrenoceptor Beta 2; Ad-ADRB2
In words: proximity ligation assay, GBM patient derived cells (endogenous receptors). As for the experimental part:
(§1) To perform PLA with PDC samples, the patient derived cells were plated and fixed with 4% PFA on sixteen-well tissue culture slides. […] Slides were then washed and incubated (1 h at 37° C.) with secondary anti-rabbit and anti-mouse antibodies conjugated with plus and minus Duolink II PLA probes. Slides were washed again and then incubated with ligation-ligase solution (30 min at 37° C.) followed by incubation with amplification-polymerase solution (2 h at 37° C.).
(§2) PDCs were seeded in 96-chamber slide at 100000 ea /well in 100 ul culture media. […] Slides were then washed and incubated (1 h at 37° C.) with secondary anti-rabbit and anti-mouse antibodies conjugated with plus and minus Duolink II PLA probes. Slides were washed again and then incubated with ligation-ligase solution (30 min at 37° C.) followed by incubation with amplification-polymerase solution (2 h at 37° C.).
For B1, the binding result is “binds”.

The next assay concerns the target T1, CHRM1. The description is as above. The method, then:
as §1, §2
B1: the binding result is “binds”.

The target in a further assay is T3, CXCR4-VN (human, UniProt P61073 1-352).
T3 construct: whole, on cells; Adenovirus-expressed in U-2 OS cells; also called CXCR4 fused with N-terminal fragment of Venus; not shown: VNm10, N-terminal fragment of Venus (VN154 variant with L46F and L64F)
In words: BiFC, U-2 OS cells, CXCR4-VN & GPCRx-VC; score=(positive cells/total cells)x100. As for the experimental part:
(§3) Images of about 200 cells from each well were analyzed with Multi-target analysis software in IN Cell Developer ToolBox (GE Healthcare, Waukesha, Wis.). Cell boundary was marked based on Hoechst signal, and fluorescence intensity per cell was measured. Cells with fluorescence intensities higher than background level were considered as BiFC positive cells. […] Positive cells were determined, and positive cell count ratio (“BiFC score”) was calculated as (positive cells/total cells)×100 (see Table 4 below).
In turn, B2 showed a BiFC score of 53.

Turning to B3, the BiFC score came out at 42.

As to B4, the BiFC score worked out at 24.

B5: the BiFC score came out at 33.

In the case of B6, the BiFC score was 41.

Molecule B7 yielded a BiFC score of 23.

For B8, the BiFC score worked out at 60.

B9 yielded a BiFC score of 63.

As for B10, the BiFC score is 43.

In the next assay the target is T3, CXCR4-VN. The description is as above. This is another data set of the same source. As for the experimental part: as §3
On to B8, for which the BiFC score is 60.

B9 returned a BiFC score of 63.
